B1: Clone #1 (scFv) (scFv)
scFv: QVTLKESGAEVKKPGESLKISCKASGYSFTNYWIGWVRQMPGKGLEWMGIIYPGDSDTRYSPSFQGQVTISADKSISTAYLQWSSLKASDTAMYYCARQGGYYYGMDVWGQGTTVTVSSGGGGSGGSGSGGGGSVPVLTQPHSVSESPGKTVTISCTRSSGSIASNYVQWYQQRPGSSPTTVIYEDNQRPSGVPDRFSGSIDMSSNSASLTISGLRTEDEGDYYCQSYDSRNHVVFGGGTQLTVLG
B2: Clone #6 (VH domain) (VHH)
VHH: EVQLVESGGGLVQPGGSLRLSCTVSGFTFSSYAVSWVRQAPGQGLEWVSAIGAGGGTYYADSVKGRFTISRDNSKNTLYLQMNSLRAEDTAVYYCAKDGADWGQGTLVTVSS
notes: Single human VH antibody domain from a phage library, not camelid; also called VH-W5A4
B3: Clone #8 (VH domain) (VHH)
VHH: EVQLVESGGGLVQPGGSLRLSCTVSGFTFSSYAVSWVRQAPGQGLEWVSSIGAGGGTYYADSVKGRFTISRDNSKNTLYLQMNSLRAEDTAVYYCAKDGADWGQGTLVTVSS
notes: Single human VH antibody domain from a phage library, not camelid
B4: Clone #9 (VH domain) (VHH)
VHH: EVQLVESGGGLVQPGGSLRLSCTVSGFTFDDYAVSWVRQAPGQGLEWVSSIGAGGGTYYADSVKGRFTISRDDSKDTLYLQMNSLRAEDTAVYYCAKDGVDWGQGTLVTVSS
notes: Single human VH antibody domain from a phage library, not camelid; also called VH-4mut
B5: Clone #7 (VH domain) (VHH)
VHH: EVQLVESGGGLVQPGGSLRLSCTVSGFTFSSYAVSWVRQAPGQGLEWVSAIGAGGGTYYADSVKGRFTISRDNSKNTLYLQMNSLRAEDTAVYYCAKDGVDWGQGTLVTVSS
notes: as for B3
B6: Clone #2 (scFv) (scFv)
scFv: QVQLQQSGAEVKKPGESLKISCKGSGYSFTNHWIAWVRQMPGKGLEWMGIIYPGDSDTRYSPSFQGQVTISADKSISTAYLQWSSLKASDTAMYYCARAQVGAFDIWGQGTMVTVSSGGGGSGGSGSSGGGSQSALTQPASVSGSPGQSITISCTRARDDVGGDNFVSWYQQHPGKAPKLMIYDVSNRPSGVSNRFSGSKSGNTASLTISGLQAEDEADYYCSSYTSSSTLPVFGGGTQLTVLG
B7: Clone #3 (VH domain) (VHH)
VHH: EVQLVESGGGVVQPGRSLRLSCAASGFTFSSYAMHWVRQAPGKGLEWVATIYQDGSESEYVDSVKGRFTVSRDNAKNTLYLQMDSLRAEDTATYYCVGRGSTSITPVWGLGTLVTVSS
notes: Single human VH antibody domain from a phage library, not camelid; also called VH-Z4D2
B8: Clone #10 (VH domain) (VHH)
VHH: EVQMVESGGGVVQPGRSLRLSCAASGFTFSSYAMHWVRQAPGKGLEWVATIYQDGSESEYVDSVKGRFTVSIDNAKNTLYLQMDSLRAEDTATYYCVGRDSTSITPVWGLGTLVTVSS
notes: as for B3
B9: Clone #11 (VH domain) (VHH)
VHH: EVQLVESGGGVVQPGRSLRLSCAASGFTFSSYAMHWVRQAPGKGLEWVATIYQDGSESEYVDSVKGRFTVSIDNAKNTLYLQMDSLRAEDTATYYCVGRASTSITPVWGLGTLVTVSS
notes: as for B3
B10: Clone #4 (VH domain) (VHH)
VHH: EVQLVESGGGVVQPGRSLRLSCAASGFTFSSYAMHWVRQAPGKGLEWVATIYQDGSESEYVDSVKGRFTVSRDDAKNTLYLQMDSLRAEDTATYYCVGRDSTSITPVWGLGTLVTVSS
notes: Single human VH antibody domain from a phage library, not camelid; also called VH-Fla; VH-F1a
B11: Clone #5 (VH domain) (VHH)
VHH: EVQLVESGGGMVQPGRSLRLSCAASGFTFSSYAMHWIRQAPGKGLEWVATIYQDGSESEYVDSVKGRFAVSRDNAKNTLYLQMDSLRAEDTATYYCVGRASASITPVWGLGTLVTVSS
notes: as for B3

The binders below were run against T1, human PSMA polypeptide (prostate specific membrane antigen) (human, UniProt Q04609 1-750) (assay: binding to LNCaP cells expressing PSMA).
T1 construct: also called PSMA protein
Description: Binding affinity and specificity to a human PSMA polypeptide were tested using LNCaP cells expressing the PSMA protein.

T1 sequence (Q04609 whole entry): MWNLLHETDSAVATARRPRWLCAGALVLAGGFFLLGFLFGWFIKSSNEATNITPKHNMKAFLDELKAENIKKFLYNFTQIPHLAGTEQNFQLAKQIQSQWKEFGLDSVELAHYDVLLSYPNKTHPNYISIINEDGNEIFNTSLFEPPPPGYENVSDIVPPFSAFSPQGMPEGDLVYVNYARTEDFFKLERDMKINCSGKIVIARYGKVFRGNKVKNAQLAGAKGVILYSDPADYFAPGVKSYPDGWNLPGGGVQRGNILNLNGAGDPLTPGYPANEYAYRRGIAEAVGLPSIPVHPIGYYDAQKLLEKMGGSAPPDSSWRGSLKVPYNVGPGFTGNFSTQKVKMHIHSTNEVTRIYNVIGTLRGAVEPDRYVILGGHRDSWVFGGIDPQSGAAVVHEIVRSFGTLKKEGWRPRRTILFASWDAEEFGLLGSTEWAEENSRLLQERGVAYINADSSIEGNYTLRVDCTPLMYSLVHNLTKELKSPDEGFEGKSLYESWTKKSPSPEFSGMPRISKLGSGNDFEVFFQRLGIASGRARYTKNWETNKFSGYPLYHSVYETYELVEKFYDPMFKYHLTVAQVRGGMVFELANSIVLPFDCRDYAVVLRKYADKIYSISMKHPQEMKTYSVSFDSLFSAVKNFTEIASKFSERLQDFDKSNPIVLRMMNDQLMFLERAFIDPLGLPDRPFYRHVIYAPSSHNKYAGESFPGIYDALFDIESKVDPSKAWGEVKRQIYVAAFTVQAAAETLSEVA

In order of rising EC50:
1. B9  1.81 nM
2. B11  2.95 nM
3. B10  3.05 nM
4. B7  4.59 nM
5. B1  6.56 nM
6. B5  8.65 nM
7. B8  8.7 nM
8. B6  8.97 nM
9. B3  10.8 nM
10. B4  15.1 nM
11. B2  32.7 nM

Reference: patent US20240400716A1 (UNIVERSITY OF PITTSBURGH OF THE COMMONWEALTH SYSTEM OF …, published 2024)
